Measured values from PMC9114490.

Biological target: Purified human C1q, P02745;P02746;P02747
Assay: FACS-based C1q binding assay
Conditions: for response: read off a plot

Substance | EC50 | response (parent: est. 42000) | further results
4A8 Parental E345R; E430G | 26.1 nM | – | response (parent: est. 65000): 750000 MFI
S309 parental IgG1 E345R; E430G | 10 nM | 800000 MFI | –
REGN10987 Parental E345R; E430G | 10.5 nM | – | response (parent: est. 85000): 830000 MFI
S230 parental IgG1 E345R; E430G | – | – | response (parent: est. 30000): 50000 MFI
REGN10933 Parental E345R; E430G | 4 nM | 800000 MFI | –
EY6A Parental E345R; E430G | 42.1 nM | – | response (parent: est. 75000): 830000 MFI
